Measurements taken from US20040181033A1 (Amgen, published 2004).

T1: recombinant mature myostatin (human, UniProt O14793 267-375)
T1 sequence (looked up): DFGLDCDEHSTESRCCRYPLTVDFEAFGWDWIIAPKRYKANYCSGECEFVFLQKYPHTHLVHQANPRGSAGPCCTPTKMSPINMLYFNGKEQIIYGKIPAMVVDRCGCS

B1: recombinant human activin receptor IIB/Fc chimera (Fc fusion, UniProt Q13705 19-134, looked up, not shown: a dimerising Fc or GST)
chain: SGRGEAETRECIYYNANWELERTNQSGLERCEGEQDKRLHCYASWRNSSGTIELVKKGCWLDDFNCYDRQECVATEENPQVYFCCCEGNFCNERFTHLPEAGGPEVTYEPPPTAPT

Tests used:
[1] = target: T1, recombinant mature myostatin; assay: cell-based or functional assay
[2] = target: T1, recombinant mature myostatin; assay: cell-based or functional assay; remark: listed apart in the source

Row | Binder | IC50 (C2C12 pMARE-luc) [1] | IC50 (read off the curve) [2]
1 | B1 | ~83 nM | 
2 | QGHCTRWPWMCPPY [TN8-19 peptide] |  | ~20 µM
